Target: S100A11 Q22R (mutant 25mer, peptide 60 / P60; residues not given) peptide on HLA-DR (human)
Assay: MSGV1 TCR-transduced healthy-donor peripheral blood T cells with B cells pulsed with the Q22R peptide. Secretion was inhibited by anti-HLA-DR/-DP/-DQ but not by anti-HLA-ABC. TNFa and Granzyme B were also released. The TIL clone released IFNg, TNFa and Granzyme B, which anti-HLA-DR blocked but anti-HLA-DP and anti-HLA-DQ did not.; full-length, on cells
Conditions: chains Valpha:Vbeta

- IFNg released: > 15000 pg/mL
B1: S100A11^Q22R-specific TCR (protein)
chain 1: SQKIEQNSEALNIQEGKTATLTCNYTNYSPAYLQWYRQDPGRGPVFLLLIRENEKEKRKERLKVTFDTTLKQSLFHITASQPADSATYLCALDFTGGGNKLTFGTGTQLKVEL
chain 2: NAGVMQNPRHLVRRRGQEARLRCSPMKGHSHVYWYRQLPEEGLKFMVYLQKENIIDESGMPKERFSAEFPKEGPSILRIQQVVRGDSAAYFCASSPSTGGIGDTQYFGPGTRLTVL

Source: patent US20260069690A1
